From PMC7822592, “The half-life of the bone-derived hormone osteocalcin is regulated through O-glycosylation in mice, but not in humans” (eLife, 2020)
No end group written: not given here. O‑glycan = not defined here

Key:
INS-1 832/3 cells = test: Ins1 gene expression in INS-1 832/3 cells treated with ucOCN; format: cell-based, rat; settings: 8 hr, qPCR
Procedure: The INS-1 832/3 rat insulinoma cell line (Millipore-Sigma) was cultured in RPMI-1640 with 11.1 mM D-glucose, supplemented with 2 mM L-glutamine, 1 mM sodium pyruvate, 10 mM HEPES, 0.05 mM β-mercaptoethanol and 10% FBS ([Hohmeier et al., 2000]). On day 1, cells were plated at 3 × 10^5 cells per well in 12-well plates and on day 5, cells were washed with PBS and incubated with culture media containing 5 mM D-glucose. Twenty-four hours later, cells were washed with PBS and incubated for 4 hr in culture media containing 1% FBS, 5 mM D-glucose and 0.1% BSA. OCN was added for 8 hr before supernatants and cells were harvested. ucOCN and O-gly ucOCN concentration were measured in supernatants by ELISA and cells were lyzed and RNA extracted as described in the material and methods section. Gene expression was analyzed using rat specific primers for Ins1 and Gapdh.

human plasmin = biological target: T1, human plasmin (Homo sapiens, UniProt P00747); test: Plasmin enzymatic assay on OCN in heat-inactivated plasma; format: in vitro ADME; settings: 2hrs, 37°C; for % OCN from initial: heat-inactivated Bglap-/- plasma diluted two times in 100 mM Tris pH 7.5, 50 ng/ml, ELISA; for % OCN from initial in plasmin (0.3 U/ml): inset graph, heat-inactivated Bglap-/- plasma, 50 ng/ml
T1 construct: different concentration of human plasmin (Sigma); purchased Sigma P1867
T1 sequence (P00747 581-810 limits assumed): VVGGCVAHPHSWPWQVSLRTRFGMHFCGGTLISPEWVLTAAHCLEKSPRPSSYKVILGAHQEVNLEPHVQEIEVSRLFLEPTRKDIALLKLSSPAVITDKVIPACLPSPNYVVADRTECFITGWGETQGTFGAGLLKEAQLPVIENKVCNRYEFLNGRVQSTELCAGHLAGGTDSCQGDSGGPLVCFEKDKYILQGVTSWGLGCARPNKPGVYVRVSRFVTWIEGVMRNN
T1 sequence (P00747 97-580 partner limits assumed): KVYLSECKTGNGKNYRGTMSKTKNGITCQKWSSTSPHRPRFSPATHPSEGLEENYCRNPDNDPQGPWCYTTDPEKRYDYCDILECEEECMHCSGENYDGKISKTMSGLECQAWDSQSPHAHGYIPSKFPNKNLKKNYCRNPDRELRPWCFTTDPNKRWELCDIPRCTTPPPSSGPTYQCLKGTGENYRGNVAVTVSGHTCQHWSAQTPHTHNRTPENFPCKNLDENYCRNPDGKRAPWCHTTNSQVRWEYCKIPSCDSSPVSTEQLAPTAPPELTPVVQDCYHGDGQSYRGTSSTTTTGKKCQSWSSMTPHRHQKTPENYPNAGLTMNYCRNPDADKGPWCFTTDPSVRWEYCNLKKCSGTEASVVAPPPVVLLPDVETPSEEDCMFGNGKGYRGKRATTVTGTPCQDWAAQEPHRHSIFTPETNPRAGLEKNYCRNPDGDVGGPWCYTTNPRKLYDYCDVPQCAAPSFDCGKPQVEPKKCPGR
Procedure: The plasmin enzymatic assay was performed on plasma ex vivo in the presence of non-glycosylated OCN and glycosylated OCN as follows: plasma from Bglap-/- mice was heat-inactivated for 30 min at 56°C, then diluted two times in the enzyme assay buffer containing 100 mM Tris buffer pH 7.5. Non-glycosylated OCN or glycosylated OCN was incubated at 50 ng/ml in the diluted plasma for two hours in the presence of different concentration of human plasmin (Sigma) ranging from 0 to 0.3 U/ml. After two hours, OCN level was measured using total mouse OCN ELISA. Results are represented as percentage of initial concentration of non-glycosylated and glycosylated OCN respectively.

[1] = Ex vivo half-life of mouse OCN in plasma; format: in vitro ADME; settings: 100 ng/ml; for % OCN from initial: Bglap-/- mouse plasma
Procedure: The mouse OCN ex vivo half-life assays were performed with fresh plasma (lithium heparin) collected from four independent Bglap-/- mice. Glycosylated OCN produced in HEK293 cells and non-glycosylated OCN, produced in bacteria as previously described ([Ferron et al., 2012]), were incubated at 100 ng/ml in plasma at 37°C and OCN level was measured at indicated time points using the total mouse OCN ELISA assay described previously ([Ferron et al., 2010b]). […] The detection antibody is a goat polyclonal antibody directed against the C-terminal region (amino acids 26 to 46) of mouse OCN (anti-CTERM OCN). This assay detects with the same sensitivity glycosylated and non-glycosylated mouse OCN at concentration of 50 ng/ml or less (Figure 3—figure supplement 2). Therefore, all samples were diluted to be in this range before being measured by the ELISA. Human OCN half-life assay was performed ex vivo using Bglap-/- mice plasma and human OCN at 60 ng/ml. Human OCN level was measured at different time point using the human ucOCN ELISA described above. At the experiment start point (T0), an aliquot of plasma was diluted in ELISA assay buffer and kept on ice for OCN measurements. In some experiments, plasma was heat-inactivated for 30 min at 56°C, or treated with EDTA (10 mM, Wisent), phenylmethylsulfonyl fluoride (PMSF, 10 mM, Sigma), pepstatin A (Pep A, 10 μM, Sigma) which inhibits aspartic proteases (pepsin, cathepsin D, renin, chymosin), RVKR (Dec-RVKR-CMK, 50 μM; Tocris) or talabostat (10 mM; Tocris). Results are calculated in percentage relative to the initial concentration of non-glycosylated and glycosylated OCN respectively.

O-gly ucOCN: O-glycosylated uncarboxylated mouse osteocalcin produced and purified from HEK293 as Fc fusion, released by thrombin (YLGASVPS(O‑glycan)PDPLEPTREQCELNPACDELSDQYGLKTAYKRIYGITI; ends and bridges not checked; also: O-glycosylated (HexNAc, Hex, NANA); UniProt P86546 50-95, looked up)
Ins1 gene expression (Fold change relative to vehicle) (INS-1 832/3 cells; 0.1 ng/mL, replicate 1): 2.4 Fold change
Ins1 gene expression (Fold change relative to vehicle) (INS-1 832/3 cells; 0.1 ng/mL, replicate 2): 1.6 Fold change
Ins1 gene expression (Fold change relative to vehicle) (INS-1 832/3 cells; 0.1 ng/mL, replicate 3): 2.2 Fold change
Ins1 gene expression (Fold change relative to vehicle) (INS-1 832/3 cells; 0.1 ng/mL, replicate 4): 2.6 Fold change
Ins1 gene expression (Fold change relative to vehicle) (INS-1 832/3 cells; 0.1 ng/mL, replicate 5): 3.1 Fold change
Ins1 gene expression (Fold change relative to vehicle) (INS-1 832/3 cells; 0.1 ng/mL, replicate 6): 3.0 Fold change
Ins1 gene expression (Fold change relative to vehicle) (INS-1 832/3 cells; 0.1 ng/mL, replicate 7): 4.2 Fold change
Ins1 gene expression (Fold change relative to vehicle) (INS-1 832/3 cells; 0.1 ng/mL, replicate 8): 2.7 Fold change
Ins1 gene expression (Fold change relative to vehicle) (INS-1 832/3 cells; 0.3 ng/mL, replicate 1): 0.562 Fold change
Ins1 gene expression (Fold change relative to vehicle) (INS-1 832/3 cells; 0.3 ng/mL, replicate 2): 1.1 Fold change
Ins1 gene expression (Fold change relative to vehicle) (INS-1 832/3 cells; 0.3 ng/mL, replicate 3): 1.1 Fold change
Ins1 gene expression (Fold change relative to vehicle) (INS-1 832/3 cells; 0.3 ng/mL, replicate 4): 12.1 Fold change
Ins1 gene expression (Fold change relative to vehicle) (INS-1 832/3 cells; 0.3 ng/mL, replicate 5): 2.0 Fold change
Ins1 gene expression (Fold change relative to vehicle) (INS-1 832/3 cells; 0.3 ng/mL, replicate 6): 8.6 Fold change
Ins1 gene expression (Fold change relative to vehicle) (INS-1 832/3 cells; 0.3 ng/mL, replicate 7): 2.7 Fold change
Ins1 gene expression (Fold change relative to vehicle) (INS-1 832/3 cells; 0.3 ng/mL, replicate 8): 4.9 Fold change
Ins1 gene expression (Fold change relative to vehicle) (INS-1 832/3 cells; 0.3 ng/mL, replicate 9): 2.3 Fold change
Ins1 gene expression (Fold change relative to vehicle) (INS-1 832/3 cells; 0.3 ng/mL, replicate 10): 0.7 Fold change
% OCN from initial (human plasmin; plasmin 0 U/ml, replicate 1): 96.7%
% OCN from initial (human plasmin; plasmin 0 U/ml, replicate 2): 103.3%
% OCN from initial (human plasmin; plasmin 0.024 U/ml, replicate 1): 81.4%
% OCN from initial (human plasmin; plasmin 0.024 U/ml, replicate 2): 86.9%
% OCN from initial (human plasmin; plasmin 0.12 U/ml, replicate 1): 63.3%
% OCN from initial (human plasmin; plasmin 0.12 U/ml, replicate 2): 75.7%
% OCN from initial (human plasmin; plasmin 0.3 U/ml, replicate 1): 34.5%
% OCN from initial (human plasmin; plasmin 0.3 U/ml, replicate 2): 40.8%
% OCN from initial in plasmin (0.3 U/ml) (human plasmin; replicate 1): 34.5%
% OCN from initial in plasmin (0.3 U/ml) (human plasmin; replicate 2): 40.8%
% OCN from initial in plasmin (0.3 U/ml) (human plasmin; replicate 3): 32.1%
% OCN from initial in plasmin (0.3 U/ml) (human plasmin; replicate 4): 27.0%
% OCN from initial in plasmin (0.3 U/ml) (human plasmin; replicate 5): 38.6%
% OCN from initial ([1]; 37°C, 0 min, ELISA, replicate 1): 100.0%
% OCN from initial ([1]; 37°C, 0 min, ELISA, replicate 2): 100.0%
% OCN from initial ([1]; 37°C, 0 min, ELISA, replicate 3): 100.0%
% OCN from initial ([1]; 37°C, 0 min, ELISA, replicate 4): 100.0%
% OCN from initial ([1]; 37°C, 0 min, ELISA, replicate 5): 100.0%
% OCN from initial ([1]; 37°C, 15 min, ELISA, replicate 1): 104.1%
% OCN from initial ([1]; 37°C, 15 min, ELISA, replicate 2): 103.7%
% OCN from initial ([1]; 37°C, 15 min, ELISA, replicate 3): 102.4%
% OCN from initial ([1]; 37°C, 15 min, ELISA, replicate 4): 105.4%
% OCN from initial ([1]; 37°C, 15 min, ELISA, replicate 5): 92.4%
% OCN from initial ([1]; 37°C, 30 min, ELISA, replicate 1): 101.9%
% OCN from initial ([1]; 37°C, 30 min, ELISA, replicate 2): 103.9%
% OCN from initial ([1]; 37°C, 30 min, ELISA, replicate 3): 104.6%
% OCN from initial ([1]; 37°C, 30 min, ELISA, replicate 4): 102.8%
% OCN from initial ([1]; 37°C, 30 min, ELISA, replicate 5): 91.2%
% OCN from initial ([1]; 37°C, 60 min, ELISA, replicate 1): 103.5%
% OCN from initial ([1]; 37°C, 60 min, ELISA, replicate 2): 108.3%
% OCN from initial ([1]; 37°C, 60 min, ELISA, replicate 3): 103.5%
% OCN from initial ([1]; 37°C, 60 min, ELISA, replicate 4): 102.6%
% OCN from initial ([1]; 37°C, 60 min, ELISA, replicate 5): 95.6%
% OCN from initial ([1]; 37°C, 90 min, ELISA, replicate 1): 108.4%
% OCN from initial ([1]; 37°C, 90 min, ELISA, replicate 2): 106.6%
% OCN from initial ([1]; 37°C, 90 min, ELISA, replicate 3): 107.8%
% OCN from initial ([1]; 37°C, 90 min, ELISA, replicate 4): 102.6%
% OCN from initial ([1]; 37°C, 90 min, ELISA, replicate 5): 92.9%
% OCN from initial ([1]; 37°C, 120 min, ELISA, replicate 1): 105.8%
% OCN from initial ([1]; 37°C, 120 min, ELISA, replicate 2): 103.2%
% OCN from initial ([1]; 37°C, 120 min, ELISA, replicate 3): 106.0%
% OCN from initial ([1]; 37°C, 120 min, ELISA, replicate 4): 107.0%
% OCN from initial ([1]; 37°C, 120 min, ELISA, replicate 5): 90.1%
% OCN from initial ([1]; 37°C, 180 min, ELISA, replicate 1): 106.8%
% OCN from initial ([1]; 37°C, 180 min, ELISA, replicate 2): 107.9%
% OCN from initial ([1]; 37°C, 180 min, ELISA, replicate 3): 107.4%
% OCN from initial ([1]; 37°C, 180 min, ELISA, replicate 4): 119.0%
% OCN from initial ([1]; 37°C, 180 min, ELISA, replicate 5): 78.8%
% OCN from initial ([1]; 37°C, 300 min, ELISA, replicate 1): 106.5%
% OCN from initial ([1]; 37°C, 300 min, ELISA, replicate 2): 103.5%
% OCN from initial ([1]; 37°C, 300 min, ELISA, replicate 3): 104.6%
% OCN from initial ([1]; 37°C, 300 min, ELISA, replicate 4): 102.2%
% OCN from initial ([1]; 37°C, 300 min, ELISA, replicate 5): 88.0%
% OCN from initial ([1]; Figure 3D, 2hrs, 37°C, Not HI, ELISA, replicate 1): 100.8%
% OCN from initial ([1]; Figure 3D, 2hrs, 37°C, Not HI, ELISA, replicate 2): 92.4%
% OCN from initial ([1]; Figure 3D, 2hrs, 37°C, Not HI, ELISA, replicate 3): 106.8%
% OCN from initial ([1]; Figure 3D, T0, ELISA, replicate 1): 101.5%
% OCN from initial ([1]; Figure 3D, T0, ELISA, replicate 2): 94.9%
% OCN from initial ([1]; Figure 3D, T0, ELISA, replicate 3): 103.6%
% OCN from initial ([1]; Figure 3 supplement 3A, 37°C, T=2hours, replicate 1): 90.8%
% OCN from initial ([1]; Figure 3 supplement 3A, 37°C, T=2hours, replicate 2): 95.5%
% OCN from initial ([1]; Figure 3 supplement 3A, 37°C, T=2hours, replicate 3): 95.0%
% OCN from initial ([1]; Figure 3 supplement 3A, T0, replicate 1): 105.0%
% OCN from initial ([1]; Figure 3 supplement 3A, T0, replicate 2): 101.3%
% OCN from initial ([1]; Figure 3 supplement 3A, T0, replicate 3): 93.7%
stable in plasma for ([1]; fresh Bglap-/- mouse plasma (lithium heparin), 37°C, total mouse OCN ELISA, n = 4 plasma): more than 5 hr
